Laboratory results: patent US7264809B1, “Methods of inhibiting platelet activation and recruitment” (Immunex Corporation, priority 1998, dated 2007)

Tests used:
[1] = Murine model of stroke (middle cerebral artery occlusion); assay type: in vivo, mice
Procedure: Anesthetized mice were maintained at 37±2° C. during and for 90 min following surgery. A midline neck incision was made and the right carotid artery exposed. Middle cerebral artery occlusion was accomplished by advancing a 13-mm heat-blunt tipped 6-0 nylon suture via an arteriotomy in the external carotid stump. The external carotid artery was cauterized to secure hemostasis, and arterial flow reestablished. […] Surgical staples were used for wound closure. […]

[2] = test system: platelets; test: Ex vivo additive inhibition of platelet aggregation in patient platelet rich plasma; assay type: cell-based, human
[3] = Bleeding time in mice; assay type: in vivo; settings: aspirin 5 mg/kg; increasing doses of solCD39 (4, 8, 20 mg/kg)
Description: (*p<0.05, ^‡p<0.01, ^†p<0.001).
Hematological profiles, including erythrocyte parameters, platelet counts, leukocyte counts and differentials, and coagulation screening, were normal. […] Under those conditions, the defect was abolished and normal blood fluidity was restored by administration of soluble CD39.

[4] = test system: platelets; test: ADP-induced platelet aggregation after solCD39 bolus in pigs; assay type: in vivo, Yorkshire-Hampshire pigs; settings: high dose solCD39
Procedure: (§1) Aspirin was administered orally on a daily basis. Placebo controls consisted of aspirin. Saline controls and solCD39 were administered as a single bolus. Time points were measured following this administration. Blood samples were obtained via an external jugular vein catheter. […] ADP-induced platelet aggregation was measured at specific time intervals following administration. The concentration of CD39 in serum as a function of time was measured using an ELISA assay.

[5] = design: species or system pigs; settings: pig, in vivo
Procedure: as §1, with “assay. Distribution and clearance half-lives were determined using a biphasic curve fit.” for “assay.”

[6] = administered three hours following stroke induction
[7] = prior to, or up to 3 h following, stroke

B1: solCD39: recombinant soluble human CD39, untagged: 12 mature huIL2 residues, three amino acid linker, sol CD39 (SEQ ID NO:7) (protein)
chain: MALWIDRMQLLSCIALSLALVTNSAPTSSSTKKTQLTSSTQNKALPENVKYGIVLDAGSSHTSLYIYKWPAEKENDTGVVHQVEECRVKGPGISKFVQKVNEIGIYLTDCMERAREVIPRSQHQETPVYLGATAGMRLLRMESEELADRVLDVVERSLSNYPFDFQGARIITGQEEGAYGWITINYLLGKFSQKTRWFSIVPYETNNQETFGALDLGGASTQVTFVPQNQTIESPDNALQFRLYGKDYNVYTHSFLCYGKDQALWQKLAKDIQVASNEILRDPCFHPGYKKVVNVSDLYKTPCTKRFEMTLPFQQFEIQGIGNYQQCHQSILELFNTSYCPYSQCAFNGIFLPPLQGDFGAFSAFYFVMKFLNLTSEKVSQEKVTEMMKKFCAQPWEEIKTSYAGVKEKYLSEYCFSGTYILSLLLQGYHFTADSWEHIHFIGKIQGSDAGWTLGYMLNLTNMIPAEQPLSTPLSHST
fibrin accumulation in the ipsilateral hemisphere ([1]; 8 mg/kg, Western blot): decreased | postischemic cerebral perfusion / blood flow ([1]; 24 hours after stroke induction): improved | infarction volume [1, 6]: reduced | postischemic blood flow [1, 6]: restored | intracerebral hemorrhage ([1]; following stroke, spectrophotometric): no significant increase | cerebral infarct volume ([1]; preoperative administration, aspirin 5 mg/kg): dose-dependent diminution | platelet accumulation in the ipsilateral cerebral hemisphere ([1]; pretreated with 8 mg/kg i.v.): inhibited | mortality [1, 7]: reduced | neurological deficit [1, 7]: reduced | infarct volume in CD39−/− mice ([1]; reconstituted CD39−/− mice): markedly diminished | Platelet aggregation ([2]; SolCD39 10 μg/ml, ADP, Abciximab group): 0 ± 0 arbitrary units | Platelet aggregation ([2]; SolCD39 10 μg/ml, ADP, Aspirin group): 4 ± 2 arbitrary units | Platelet aggregation ([2]; SolCD39 10 μg/ml, ADP, Clopidogrel group): 5 ± 2 arbitrary units | Platelet aggregation ([2]; SolCD39 10 μg/ml, ADP, Placebo group): 0 ± 0 arbitrary units | Platelet aggregation ([2]; SolCD39 10 μg/ml, ADP, Ticlopidine group): 10 ± 2 arbitrary units | Platelet aggregation ([2]; SolCD39 10 μg/ml, Collagen, Abciximab group): 0 ± 0 arbitrary units | Platelet aggregation ([2]; SolCD39 10 μg/ml, Collagen, Aspirin group): 21 ± 4 arbitrary units | Platelet aggregation ([2]; SolCD39 10 μg/ml, Collagen, Clopidogrel group): 31 ± 9 arbitrary units | Platelet aggregation ([2]; SolCD39 10 μg/ml, Collagen, Placebo group): 75 ± 2 arbitrary units | Platelet aggregation ([2]; SolCD39 10 μg/ml, Collagen, Ticlopidine group): 48 ± 18 arbitrary units | Platelet aggregation ([2]; SolCD39 10 μg/ml, TRAP, Abciximab group): 22 ± 10 arbitrary units | Platelet aggregation ([2]; SolCD39 10 μg/ml, TRAP, Aspirin group): 38 ± 7 arbitrary units | Platelet aggregation ([2]; SolCD39 10 μg/ml, TRAP, Clopidogrel group): 35 ± 1 arbitrary units | Platelet aggregation ([2]; SolCD39 10 μg/ml, TRAP, Placebo group): 70 ± 3 arbitrary units | Platelet aggregation ([2]; SolCD39 10 μg/ml, TRAP, Ticlopidine group): 19 ± 6 arbitrary units | Platelet aggregation ([2]; SolCD39 100 μg/ml, ADP, Abciximab group): 0 ± 0 arbitrary units | Platelet aggregation ([2]; SolCD39 100 μg/ml, ADP, Aspirin group): 1 ± 0 arbitrary units | Platelet aggregation ([2]; SolCD39 100 μg/ml, ADP, Clopidogrel group): 0 ± 0 arbitrary units | Platelet aggregation ([2]; SolCD39 100 μg/ml, ADP, Placebo group): 0 ± 0 arbitrary units | Platelet aggregation ([2]; SolCD39 100 μg/ml, ADP, Ticlopidine group): 2 ± 2 arbitrary units | Platelet aggregation ([2]; SolCD39 100 μg/ml, Collagen, Abciximab group): 0 ± 0 arbitrary units | Platelet aggregation ([2]; SolCD39 100 μg/ml, Collagen, Aspirin group): 16 ± 4 arbitrary units | Platelet aggregation ([2]; SolCD39 100 μg/ml, Collagen, Clopidogrel group): 21 ± 6 arbitrary units | Platelet aggregation ([2]; SolCD39 100 μg/ml, Collagen, Placebo group): 57 ± 5 arbitrary units | Platelet aggregation ([2]; SolCD39 100 μg/ml, Collagen, Ticlopidine group): 37 ± 15 arbitrary units | Platelet aggregation ([2]; SolCD39 100 μg/ml, TRAP, Abciximab group): 22 ± 9 arbitrary units | Platelet aggregation ([2]; SolCD39 100 μg/ml, TRAP, Aspirin group): 26 ± 5 arbitrary units | Platelet aggregation ([2]; SolCD39 100 μg/ml, TRAP, Clopidogrel group): 23 ± 3 arbitrary units | Platelet aggregation ([2]; SolCD39 100 μg/ml, TRAP, Placebo group): 65 ± 4 arbitrary units | Platelet aggregation ([2]; SolCD39 100 μg/ml, TRAP, Ticlopidine group): 18 ± 7 arbitrary units | bleeding times [3]: markedly increased | inhibition of platelet aggregation at two weeks [4]: 30% | elimination half-life of biological activity (ADPase activity) [5]: 5-7 days | t1/2α (distribution phase) [5]: 29 min
